Entries after “also recorded” stand apart in the source; their conditions may differ. Like-named read-outs stand apart in the source and are kept apart here.
How the values were obtained:
β2AR-365:Gs complex [1] = molecular target: T1, β2AR-365:Gs complex (UniProt P04896+P07550, E27Q/G16R/N187E); assay: analytical gel filtration: effect of nucleotide analogs on the R:G complex; assay type: biochemical; conditions: for effect of nucleotides on the β2AR:Gs complex: 0.1 mM (FIG. 3A); for effect of phosphates resembling nucleotide phosphate groups on the complex: 5 mM
T1 construct: A β2AR construct truncated after residue 365; Flag (M1); made in house; host or cells: High 5 insect cells (Gs subunits)
Procedure: FIGS. 3A-3G: Effect of nucleotide analogs, pH, and nanobodies on the stability of the β2AR:Gs complex. […] FIG. 3C, The pH limit was determined to guide the preparation of crystallization screens. For the same purpose the effect of ionic strength (data not shown) was determined using NaCl at various concentrations.
To maintain the high-affinity nucleotide-free state of the complex, apyrase (25 mU/ml, NEB) was added after 90 min to hydrolyze residual GDP released from Gαs upon binding to the receptor.

β2AR-365:Gs complex [2] = molecular target: T1, β2AR-365:Gs complex; assay: analytical gel filtration: stability of the R:G complex in detergents; conditions: for stability of the R:G complex in detergent: 48 hrs at 4° C.
Procedure: (§1) FIG. 4: Stabilizing effect of MNG-3 on the R:G complex. Panel a) Analytical gel filtration of β2AR-365:Gs complexes purified in DDM (in black), MNG-3 (in blue), or two MNG-3 analogs (in red and green) following incubation for 48 hrs at 4° C. In contrast to DDM the R:G complexes are stable in the MNG detergents. Panel b) Effect of diluting unliganded purified β2AR in DDM or MNG-3 below the critical micelle concentration (CMC) of the detergent as assayed by 3H-dihydro alprenolol (3H-DHA) saturation binding.
One challenge for crystallogenesis was to prepare a stable β2AR:Gs complex in detergent solution. The β2AR and Gs couple efficiently in lipid bilayers, but not in detergents used to solubilize and purify these proteins (Example 1). […] Apyrase, a non-selective purine pyrophosphatase, was added to hydrolyze GDP released from Gs on forming a complex with the β2AR. The complex was subsequently purified by sequential antibody affinity chromatography and size exclusion chromatography. The stability of the complex was enhanced by exchanging it into a recently developed maltose neopentyl glycol detergent (NG-310, Anatrace) (Chae et al., 2010).

unliganded purified β2AR = molecular target: T2, unliganded purified β2AR (Homo sapiens, UniProt P07550); assay: 3H-DHA saturation binding after dilution of detergent below the CMC; conditions: diluted 1000-fold below the CMC; DDM after 20 sec, MNG-3 after 24 hrs
T2 construct: made in house
Procedure: as §1

[3] = molecular target: T3, AVP:NT4LV2R:Gs complex (Arginine vasopressin receptor 2) (Homo sapiens, UniProt P30518); assay: SEC stability of the AVP:NT4LV2R:Gs complex; assay type: biochemical
T3 construct: The N-terminally fused T4L V2R construct (NT4L-V2R); His tag (only implied by nickel-NTA purification of the receptor); made in house; host or cells: Sf9 (NT4L-V2R); High 5 (Gs); E. coli WK6 (Nb35)
Procedure: Arginine vasopressin (AVP), also known as vasopressin, argipressin or antidiuretic hormone, is a natural ligand that activates Arginine vasopressin receptor 2.
Formation of a stable complex (FIG. 19, Panel a) was accomplished by mixing His tagged Gs heterotrimer at approximately 90 μM concentration with AVP bound NT4LV2R (90 μM) and NB35 (100 μM) in 0.1 ml buffer (10 mM HEPES, pH 7.5, 100 mM NaCl, 0.1% DDM, 1 mM EDTA, 3 mM MgCl2, 10 μM AVP) and incubated for 2 hours at room temperature. Next, the AVP:NT4LV2R:Gs complex was purified in two successive affinity purification steps. The purification was monitored by SDS-PAGE (FIG. 19). First, the complex was applied on a Ni-NTA column after adding 300 μl of 1% MNG in 10 mM HEPES, pH 7.5, 100 mM NaCl buffer onto the reaction mix. Following extensive washing with buffer, the complex was eluted in 0.2% MNG, 10 mM HEPES, pH 7.5, 100 mM NaCl AVP 10 μM with 200 mM imidazole. Next the complex was applied on a FLAG-tag affinity column, washed extensively in the same buffer containing 0.01% MNG and eluted with the FLAG-peptide. […] This complex was further purified by SEC on a superdex200 column in 10 mM HEPES, pH 7.5, 100 mM NaCl, 0.01% MNG, 1 mM EDTA, 3 mM MgCl2, 1 μM AVP). […]

β2AR:Gs:BI167107 complex = assay: analytical size exclusion chromatography of the ternary complex in the presence and absence of GTPγS; assay type: biochemical, human β2AR; bovine Gαs, rat Gβ1, rat Gγ2
Procedure: The mutual effects of Nbs and the non-hydrolyzable GTP analog GTPγS on the integrity of the agonist:β2AR:Gs ternary complex was analyzed by analytical size exclusion chromatography in the presence and absence of GTPγS.

[4] = tested on: β2AR:Gs:BI167107 ternary complex; assay: analytical gel filtration (size exclusion chromatography) of nanobody binding to the ternary complex; parameters: species or system human β2AR; bovine Gαs, rat Gβ1, rat Gγ2; conditions: for epitope on the Gs heterotrimer relative to Nb37 (size exclusion chromatography): forms R:G:Nb:Nb37 complex
purified Gαs = molecular target: T4, purified Gαs (Bos taurus, UniProt P04896); assay: Bodipy-GTPγS-FL fluorescence nucleotide binding assay on Gαs; assay type: biochemical, Bovine; conditions: 100 nM Bodipy-GTPγS-FL, 1 μM purified Gαs, increasing concentrations of nanobody, 300 seconds
T4 construct: made in house
Procedure: (§2) To investigate the effect of nanobodies (Nb35 and Nb37) on Gs alone, nanobodies were added together with bodipy-GTPγS-FL and various Gs protein preparations in 20 mM Tris-HCl, Ph 8.0, 3 mM MgCl2, 1 mM DTT in a final volume of 200 μL. Samples containing a heterotrimeric Gs protein also included 0.1% DDM. Bodipy-GTPγS-FL is a stable fluorescent GTP analog (λex≈470 nm, λem≈515 nm). Its fluorescence intensity increases upon G protein binding and Bodipy-GTPγS-FL can therefore be used for real-time measurements of nucleotide binding to G proteins (McEwen et al., 2001). Fluorescence was measured in a 96-well microtiter plate format on a M5 fluorescence plate reader (Molecular […]).
In a first experiment (FIG. 16), increasing amounts of Nb37 were incubated with 1 μM purified GαS and 100 nM Bodipy-GTPγS-FL and the fluorescence increase was measured on a short time scale (300 seconds) to minimize the accumulation of the hydrolysis product bodipy-phosphate (Jameson et al., 2005). The Gαs subunit of the heterotrimeric Gs protein was purified as described previously (Sunahara et al., 1997). […] In a similar experiment (FIG. 17), increasing amounts of Nb35 were incubated with 1 μM purified GαS and 100 nM Bodipy-GTPγS-FL.

[5] = molecular target: T5, purified Gsαβγ heterotrimer (UniProt P04896+P54311); assay: Bodipy-GTPγS-FL fluorescence nucleotide binding assay on Gs heterotrimer; assay type: biochemical, bovine Gαs, rat Gβ1, rat Gγ2; conditions: 100 nM Bodipy-GTPγS-FL, 1 μM purified Gsαβγ heterotrimer, increasing concentrations of nanobody
T5 construct: made in house; host or cells: High 5 insect cells
Procedure: as §2
In another experiment (FIG. 18), increasing amounts of Nb35 were incubated with 1 μM of the purified Gs αβγ heterotrimer and 100 nM Bodipy-GTPγS-FL.

Molecule: Nc1nc2c(ncn2[C@@H]2O[C@H](COP(=O)(O)OP(=O)(O)O)[C@@H](O)[C@H]2O)c(=O)[nH]1 [GDP, guanosine diphosphate]
- effect of nucleotides on the β2AR:Gs complex (β2AR-365:Gs complex [1]): disrupt the β2AR:Gs complex; also recorded: causes dissociation of the β2AR-365:Gs complex

Molecule: CC(C)NCC(O)c1ccc(O)c(O)c1 (stereo not shown) [isoproterenol]
- effect of M96T and M98T receptor mutations on ligand affinity (T4L-β2AR): two-fold decrease in affinity

Molecule: CCCc1ccccc1OCC(O)CNC(C)C (stereo not shown) [^3H-dihydro-alprenolol]
- effect of M96T and M98T receptor mutations on ligand affinity (T4L-β2AR; data not shown): did not affect ligand binding affinity

Molecule: O=C(O)P(=O)(O)O [forcarnet]
- effect of phosphates resembling nucleotide phosphate groups on the complex (β2AR-365:Gs complex [1]): did not cause disruption of the complex

Molecule: O=P(O)(O)OP(=O)(O)O [pyrophosphate]
- effect of phosphates resembling nucleotide phosphate groups on the complex (β2AR-365:Gs complex [1]): did not cause disruption of the complex

Molecule: Nc1nc2c(ncn2[C@@H]2O[C@H](COP(=O)(O)OP(=O)(O)OP(=O)(O)O)[C@@H](O)[C@H]2O)c(=O)[nH]1 [GTP, guanosine triphosphate]
- effect of nucleotides on the β2AR:Gs complex (β2AR-365:Gs complex [1]): disrupt the β2AR:Gs complex

Molecule: Nc1nc2c(ncn2[C@@H]2O[C@H](COP(=O)(O)OP(=O)(O)OP(O)(O)=S)[C@@H](O)[C@H]2O)c(=O)[nH]1 [GTPγS]
- effect of nucleotides on the β2AR:Gs complex (β2AR-365:Gs complex [1]): causes dissociation of the β2AR-365:Gs complex

Molecule: CCCCCCCCCCC(CCCCCCCCCC)(CO[C@@H]1O[C@H](CO)[C@@H](O[C@H]2O[C@H](CO)[C@@H](O)[C@H](O)[C@H]2O)[C@H](O)[C@H]1O)CO[C@@H]1O[C@H](CO)[C@@H](O[C@H]2O[C@H](CO)[C@@H](O)[C@H](O)[C@H]2O)[C@H](O)[C@H]1O [MNG-3]
- stability of the R:G complex in detergent (β2AR-365:Gs complex [2]): substantially stabilize the complex; also recorded: stable
- stability of the β2AR:Gs complex in detergent at room temperature (β2AR-365:Gs complex [2]; room temperature for 24 hours): without any noticeable degradation
- 3H-DHA binding of β2AR after dilution of detergent (unliganded purified β2AR): maintained full ability to bind the radioligand

Molecule: CCOc1ccc2c(c1)C1(CCC(OCCN3CCOCC3)CC1)C(=O)N2S(=O)(=O)c1ccc(C(=O)NC(C)(C)C)cc1OC (stereo not shown) [SR121463, reference compound]
- effect of antagonist on the AVP:NT4LV2R:Gs complex ([3]; 10 μM): disrupts the AVP:NT4LV2R:Gs complex

Molecule: CCCCCCCCCCCCO[C@@H]1O[C@H](CO)[C@@H](O[C@H]2O[C@H](CO)[C@@H](O)[C@H](O)[C@H]2O)[C@H](O)[C@H]1O [DDM, n-Dodecyl-β-D-maltoside]
- stability of the R:G complex in detergent (β2AR-365:Gs complex [2]): significant dissociation
- 3H-DHA binding of β2AR after dilution of detergent (unliganded purified β2AR): loss in 3H-DHA binding

B1: Nb36: nanobody, SEQ ID NO: 3, binds Gs (protein, listed as Lama glama)
VHH: QVQLQESGGGSVQAGGSLRLSCTVSGTIFSVTVMGWYRQAPGKQRELVAGFTNTRNTNYVDSVKGRFTISKDSAKNTMYLQMNSLKPEDTAVYYCNVRRWGGTNWNDYWGQGTQVTVSSHHHHHHEPEA
- protection of the ternary complex from dissociation by GTPγS (β2AR:Gs:BI167107 complex): less sensitive to GTPγS treatment
- protection of the ternary complex from dissociation by GTPγS (β2AR:Gs:BI167107 complex; listed as 36): protect the β2AR:Gs:BI167107 complex from dissociation
- binding to the β2AR:Gs:BI167107 ternary complex by analytical gel filtration [4]: further confirmed
- epitope on the Gs heterotrimer relative to Nb37 (size exclusion chromatography) [4]: bind separate epitopes

B2: Nb37: nanobody, SEQ ID NO: 4, binds the Gsα subunit (protein, listed as Lama glama)
VHH: QVQLQESGGGFVQAGGSLRLSCAASGSIFSKNTMAWFRQAPGKERELVAASPTGGSTAYKDSVKGRFTISRDSAKNTVLLQMNVLKPEDTAVYYCHLRQNNRGSWFHYWGQGTQVTVSSHHHHHHEPEA
- effect on GTPγS binding to Gαs alone (purified Gαs): blocks GTPγS binding to Gsα alone in a dose dependent manner; also recorded: inhibits GTPγS binding to Gαs
- protection of the ternary complex from dissociation by GTPγS (β2AR:Gs:BI167107 complex): insensitive to GTPγS treatment
- protection of the ternary complex from dissociation by GTPγS (β2AR:Gs:BI167107 complex; listed as 37): protect the β2AR:Gs:BI167107 complex from dissociation
- binding to the β2AR:Gs:BI167107 ternary complex by analytical gel filtration [4]: further confirmed

B3: Nb35: nanobody, SEQ ID NO: 1; binds Gs at the interface of Gα and Gβ subunits (protein, listed as Lama glama)
VHH: QVQLQESGGGLVQPGGSLRLSCAASGFTFSNYKMNWVRQAPGKGLEWVSDISQSGASISYTGSVKGRFTISRDNAKNTLYLQMNSLKPEDTAVYYCARCPAPFTRDCFDVTSTTYAYRGQGTQVTVSSHHHHHHEPEA
- effect on GTPγS binding to Gαs alone (purified Gαs): has no effect on GTPγS binding; also recorded: does not affect GTPγS binding to Gαs
- protection of the ternary complex from dissociation by GTPγS (β2AR:Gs:BI167107 complex): protects the complex from dissociation by GTPγS; also recorded: insensitive to GTPγS treatment
- protection of the ternary complex from dissociation by GTPγS (β2AR:Gs:BI167107 complex; listed as 35): protect the β2AR:Gs:BI167107 complex from dissociation
- binding to the β2AR:Gs:BI167107 ternary complex by analytical gel filtration [4]: further confirmed
- epitope on the Gs heterotrimer relative to Nb37 (size exclusion chromatography) [4]: bind separate epitopes
- effect on GTPγS binding to the Gsαβγ heterotrimer [5]: blocks GTPγS binding to the free Gsαβγ heterotrimer in a dose dependent manner; also recorded: inhibits GTPγS binding to the Gsαβγ heterotrimer
- stability of the V2R:Gs:AVP complex with nanobody in SEC ([3]; complex of V2R, Gs, Nb35 and AVP): demonstrated the stability of this complex in SEC

Source: US10626154B2, “Binding domains directed against GPCR:G protein complexes and uses derived thereof” (VIB VZW, priority 2011, dated 2020)
